Results on 44 variants are retold here after the Human Domainome abundance scans (Beltran et al. 2025).

± gives the uncertainty stated by the source.

To fix the notation:
B1: CD2-associated protein, residues 271 to 331; numbered along this chain, Q9Y5K6 (parent)
chain: KEYCRTLFAYEGTNEDELTFKEGEIIHLISKETGEAGWWRGELNGKEGVFPDNFAVQINEL

The data set covers variants of B1. The data set can be described thus: abundance fitness (aPCA) (normalised: wild type 0, dead -1); higher = more abundant; growth selection in yeast, the domain comes from the species named. Conditions: Homo sapiens.
Turning to KEYCRTLFAYEGTNEDELTFKEGEIIQLISKETGEAGWWRGELNGKEGVFPDNFAVQINEL [H27Q], the abundance fitness is -0.021 ± 0.091.

Take KEYCRTLFAYEGTNEDELTFKEGEIIILISKETGEAGWWRGELNGKEGVFPDNFAVQINEL [H27I]: the abundance fitness is -0.297 ± 0.18. Take KEYCRTLFAYEGTNEDELTFKEGEIIFLISKETGEAGWWRGELNGKEGVFPDNFAVQINEL [H27F]: the abundance fitness was -0.26 ± 0.2. Consider KEYCRTLFAYEGTNEDELTFKEGEIISLISKETGEAGWWRGELNGKEGVFPDNFAVQINEL [H27S], for which the abundance fitness is -0.083 ± 0.069.

In the case of KEYCRTLFAYEGTNEDELTFKEGEIICLISKETGEAGWWRGELNGKEGVFPDNFAVQINEL [H27C], the abundance fitness is 0.013 ± 0.078. KEYCRTLFAYEGTNEDELTFKEGEIIDLISKETGEAGWWRGELNGKEGVFPDNFAVQINEL [H27D]: the abundance fitness was -0.335 ± 0.16. Then KEYCRTLFAYEGTNEDELTFKEGEIIELISKETGEAGWWRGELNGKEGVFPDNFAVQINEL [H27E], with 0.093 ± 0.082; and KEYCRTLFAYEGTNEDELTFKEGEIITLISKETGEAGWWRGELNGKEGVFPDNFAVQINEL [H27T], with 0.04 ± 0.072; and KEYCRTLFAYEGTNEDELTFKEGEIIVLISKETGEAGWWRGELNGKEGVFPDNFAVQINEL [H27V], with -0.03 ± 0.07. Regarding KEYCRTLFAYEGTNEDELTFKEGEIINLISKETGEAGWWRGELNGKEGVFPDNFAVQINEL [H27N], the abundance fitness was -0.165 ± 0.1. KEYCRTLFAYEGTNEDELTFKEGEIIKLISKETGEAGWWRGELNGKEGVFPDNFAVQINEL [H27K]: the abundance fitness came to 0.031 ± 0.087. In the case of KEYCRTLFAYEGTNEDELTFKEGEIIWLISKETGEAGWWRGELNGKEGVFPDNFAVQINEL [H27W], the abundance fitness was -0.276 ± 0.066. Regarding KEYCRTLFAYEGTNEDELTFKEGEIIALISKETGEAGWWRGELNGKEGVFPDNFAVQINEL [H27A], the abundance fitness was -0.005 ± 0.059.

On to KEYCRTLFAYEGTNEDELTFKEGEIIGLISKETGEAGWWRGELNGKEGVFPDNFAVQINEL [H27G], for which the abundance fitness is -0.09 ± 0.064. The result for KEYCRTLFAYEGTNEDELTFKEGEIILLISKETGEAGWWRGELNGKEGVFPDNFAVQINEL [H27L] reads -0.079 ± 0.064; that for KEYCRTLFAYEGTNEDELTFKEGEIIPLISKETGEAGWWRGELNGKEGVFPDNFAVQINEL [H27P], -0.428 ± 0.12. For the variant KEYCRTLFAYEGTNEDELTFKEGEIIYLISKETGEAGWWRGELNGKEGVFPDNFAVQINEL [H27Y], the abundance fitness is -0.126 ± 0.1.

KEYCRTLFAYEGTNEDELTFKEGEIAHLISKETGEAGWWRGELNGKEGVFPDNFAVQINEL [I26A]: the abundance fitness was -0.82 ± 0.14. For the variant KEYCRTLFAYEGTNEDELTFKEGEIWHLISKETGEAGWWRGELNGKEGVFPDNFAVQINEL [I26W], the abundance fitness is -0.599 ± 0.12. For KEYCRTLFAYEGTNEDELTFKEGEIVHLISKETGEAGWWRGELNGKEGVFPDNFAVQINEL [I26V], the abundance fitness is -0.153 ± 0.062. With KEYCRTLFAYEGTNEDELTFKEGEITHLISKETGEAGWWRGELNGKEGVFPDNFAVQINEL [I26T], the abundance fitness was -0.605 ± 0.082. As to KEYCRTLFAYEGTNEDELTFKEGEIDHLISKETGEAGWWRGELNGKEGVFPDNFAVQINEL [I26D], the abundance fitness was -0.7 ± 0.38. Then KEYCRTLFAYEGTNEDELTFKEGEICHLISKETGEAGWWRGELNGKEGVFPDNFAVQINEL [I26C], with -0.46 ± 0.19; and KEYCRTLFAYEGTNEDELTFKEGEIPHLISKETGEAGWWRGELNGKEGVFPDNFAVQINEL [I26P], with -0.803 ± 0.14. For the variant KEYCRTLFAYEGTNEDELTFKEGEIQHLISKETGEAGWWRGELNGKEGVFPDNFAVQINEL [I26Q], the abundance fitness is -0.734 ± 0.15. KEYCRTLFAYEGTNEDELTFKEGEIGHLISKETGEAGWWRGELNGKEGVFPDNFAVQINEL [I26G]: the abundance fitness was -0.856 ± 0.13.

For the variant KEYCRTLFAYEGTNEDELTFKEGEISHLISKETGEAGWWRGELNGKEGVFPDNFAVQINEL [I26S], the abundance fitness is -0.76 ± 0.078. As to KEYCRTLFAYEGTNEDELTFKEGEILHLISKETGEAGWWRGELNGKEGVFPDNFAVQINEL [I26L], the abundance fitness was -0.214 ± 0.056. Then KEYCRTLFAYEGTNEDELTFKEGEIMHLISKETGEAGWWRGELNGKEGVFPDNFAVQINEL [I26M], with -0.555 ± 0.14. Then KEYCRTLFAYEGTNEDELTFKEGEIRHLISKETGEAGWWRGELNGKEGVFPDNFAVQINEL [I26R], with -0.829 ± 0.09. Then KEYCRTLFAYEGTNEDELTFKEGEIEHLISKETGEAGWWRGELNGKEGVFPDNFAVQINEL [I26E], with -0.725 ± 0.12; and KEYCRTLFAYEGTNEDELTFKEGEIHHLISKETGEAGWWRGELNGKEGVFPDNFAVQINEL [I26H], with -0.537 ± 0.17; and KEYCRTLFAYEGTNEDELTFKEGETIHLISKETGEAGWWRGELNGKEGVFPDNFAVQINEL [I25T], with -0.175 ± 0.072. For KEYCRTLFAYEGTNEDELTFKEGESIHLISKETGEAGWWRGELNGKEGVFPDNFAVQINEL [I25S], the abundance fitness is -0.448 ± 0.071. The result for KEYCRTLFAYEGTNEDELTFKEGEWIHLISKETGEAGWWRGELNGKEGVFPDNFAVQINEL [I25W] reads -0.75 ± 0.14. Then KEYCRTLFAYEGTNEDELTFKEGEVIHLISKETGEAGWWRGELNGKEGVFPDNFAVQINEL [I25V], with -0.083 ± 0.053. Then KEYCRTLFAYEGTNEDELTFKEGERIHLISKETGEAGWWRGELNGKEGVFPDNFAVQINEL [I25R], with -0.372 ± 0.053. Turning to KEYCRTLFAYEGTNEDELTFKEGEIIHIISKETGEAGWWRGELNGKEGVFPDNFAVQINEL [L28I], the abundance fitness was -0.068 ± 0.11. Turning to KEYCRTLFAYEGTNEDELTFKEGEIIHDISKETGEAGWWRGELNGKEGVFPDNFAVQINEL [L28D], the abundance fitness was -0.82 ± 0.26. Then KEYCRTLFAYEGTNEDELTFKEGEIIHHISKETGEAGWWRGELNGKEGVFPDNFAVQINEL [L28H], with -0.623 ± 0.13. Consider KEYCRTLFAYEGTNEDELTFKEGEIIHAISKETGEAGWWRGELNGKEGVFPDNFAVQINEL [L28A], for which the abundance fitness was -0.812 ± 0.2.

On to KEYCRTLFAYEGTNEDELTFKEGEIIHEISKETGEAGWWRGELNGKEGVFPDNFAVQINEL [L28E], for which the abundance fitness is -0.738 ± 0.16. Consider KEYCRTLFAYEGTNEDELTFKEGEIIHCISKETGEAGWWRGELNGKEGVFPDNFAVQINEL [L28C], for which the abundance fitness was -0.676 ± 0.078. As to KEYCRTLFAYEGTNEDELTFKEGEIIHGISKETGEAGWWRGELNGKEGVFPDNFAVQINEL [L28G], the abundance fitness is -0.778 ± 0.077.
